Measured values taken from CN101798349A (INST BIOENGINEERING AMMS, dated 2010).

Target: T1, uPAR蛋白 (尿激酶型纤溶酶原激活物受体, R&D Systems 807-UK-100) (UniProt Q03405 23-303, limits assumed)
T1 construct: Bought protein; also called 抗原uPAR
Test: SPR, Biacore 3000, CM5 chip, HBS-EP pH 7.4, 0-100 nmol/L, mean of 3 repeats

T1 sequence (Q03405 23-303 limits assumed): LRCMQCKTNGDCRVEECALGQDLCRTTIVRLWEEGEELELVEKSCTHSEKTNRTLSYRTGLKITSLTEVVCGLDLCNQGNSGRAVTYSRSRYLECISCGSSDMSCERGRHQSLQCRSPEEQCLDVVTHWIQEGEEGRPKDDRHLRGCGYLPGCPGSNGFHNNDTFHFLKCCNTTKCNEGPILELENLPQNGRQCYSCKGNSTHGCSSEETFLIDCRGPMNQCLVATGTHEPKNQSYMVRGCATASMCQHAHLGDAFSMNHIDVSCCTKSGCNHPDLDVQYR

Kd: 14.9 nM
B1: 抗uPAR人源化抗体Y2B (antibody, V domains shown)
VH: EVQLVQSGAEVKKPGSSVKVSCKASGYTFTDYYIHWVRQAPGQGLEWIGWIFHGSDNTEYNEKFKSKATITADESTSTAYMELSSLRSEDTAVFYCARWGPHWYFDAWGRGTLVTVSP
VL: DIQMTQSPSTLSASVGDRVTITCRASSSVSYIHWYQQKPGRAPKPLMYEASSRATGVPSRFSGSGSGTEYTLTISSLQSDDFATYYCQQWNYPFTFGQGTKLEIKR
notes: also called 抗uPAR抗体Y2B; Y2B抗体
